Data on one molecule can be found in PMC11470125.

For the series, the target named is T1, LbuCas13a (Leptotrichia buwadei? (printed only as …, UniProt C7NBY4 1-1159)).
T1 sequence: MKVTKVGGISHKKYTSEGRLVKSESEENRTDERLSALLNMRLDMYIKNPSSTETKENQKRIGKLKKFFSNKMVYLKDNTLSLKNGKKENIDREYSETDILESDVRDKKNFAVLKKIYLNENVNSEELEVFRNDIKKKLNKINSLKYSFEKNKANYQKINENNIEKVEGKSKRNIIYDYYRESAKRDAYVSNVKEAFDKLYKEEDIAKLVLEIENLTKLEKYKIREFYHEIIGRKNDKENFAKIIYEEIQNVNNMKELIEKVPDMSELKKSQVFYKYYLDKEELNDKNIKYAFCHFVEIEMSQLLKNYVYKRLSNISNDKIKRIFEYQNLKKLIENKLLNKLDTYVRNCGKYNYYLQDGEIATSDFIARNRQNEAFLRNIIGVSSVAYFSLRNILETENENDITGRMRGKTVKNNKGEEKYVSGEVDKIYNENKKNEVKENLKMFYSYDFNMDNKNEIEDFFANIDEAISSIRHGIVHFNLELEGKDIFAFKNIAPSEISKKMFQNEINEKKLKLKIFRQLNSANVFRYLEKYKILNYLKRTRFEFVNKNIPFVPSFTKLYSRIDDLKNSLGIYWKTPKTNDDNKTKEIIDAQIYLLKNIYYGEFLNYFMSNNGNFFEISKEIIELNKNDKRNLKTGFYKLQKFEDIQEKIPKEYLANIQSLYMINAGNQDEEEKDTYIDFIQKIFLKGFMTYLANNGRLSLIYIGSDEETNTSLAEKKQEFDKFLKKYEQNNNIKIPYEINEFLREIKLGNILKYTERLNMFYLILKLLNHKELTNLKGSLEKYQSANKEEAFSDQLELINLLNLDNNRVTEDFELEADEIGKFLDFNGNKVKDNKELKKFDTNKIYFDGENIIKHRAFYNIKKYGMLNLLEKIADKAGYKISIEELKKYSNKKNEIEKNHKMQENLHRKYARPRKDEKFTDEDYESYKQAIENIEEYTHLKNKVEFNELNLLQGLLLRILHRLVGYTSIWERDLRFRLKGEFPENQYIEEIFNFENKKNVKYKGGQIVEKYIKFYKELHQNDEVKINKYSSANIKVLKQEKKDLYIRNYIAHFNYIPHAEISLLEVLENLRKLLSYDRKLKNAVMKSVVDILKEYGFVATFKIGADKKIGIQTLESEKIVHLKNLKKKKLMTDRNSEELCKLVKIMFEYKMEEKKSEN
Briefly: competition.

B1: Cas13a crRNA with scrambled ssDNA, unlabelled competitor (mixed)
RNA: GAUUUAGACCACCCCAAAAAUGAAGGGGACUAAAACUGGGUGUUUGACAAGUUGUAUUGCAAUC
DNA: TCCACATCATCACTATTAACAAGGAACACTCCGAGGGT
In the case of B1, the binding result was “no binding”.
